Patent US20240301076A1 (CEPHALON, published 2024)

T1: human CXCR2 (human, UniProt P25025 1-360)
T1 construct: also called CXC chemokine receptor 2; hCXCR2
T1 sequence: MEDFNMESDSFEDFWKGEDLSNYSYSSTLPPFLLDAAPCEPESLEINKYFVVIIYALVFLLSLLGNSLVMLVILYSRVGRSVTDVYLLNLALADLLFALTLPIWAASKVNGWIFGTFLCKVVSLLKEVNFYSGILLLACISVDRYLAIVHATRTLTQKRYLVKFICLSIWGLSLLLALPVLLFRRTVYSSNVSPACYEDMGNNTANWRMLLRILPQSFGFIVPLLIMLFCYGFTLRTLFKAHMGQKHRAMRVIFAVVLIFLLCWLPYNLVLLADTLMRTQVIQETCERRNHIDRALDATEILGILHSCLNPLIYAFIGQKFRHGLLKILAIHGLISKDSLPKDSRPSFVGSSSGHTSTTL

T2: human CXCR1 (human, UniProt P25024 1-350)
T2 sequence: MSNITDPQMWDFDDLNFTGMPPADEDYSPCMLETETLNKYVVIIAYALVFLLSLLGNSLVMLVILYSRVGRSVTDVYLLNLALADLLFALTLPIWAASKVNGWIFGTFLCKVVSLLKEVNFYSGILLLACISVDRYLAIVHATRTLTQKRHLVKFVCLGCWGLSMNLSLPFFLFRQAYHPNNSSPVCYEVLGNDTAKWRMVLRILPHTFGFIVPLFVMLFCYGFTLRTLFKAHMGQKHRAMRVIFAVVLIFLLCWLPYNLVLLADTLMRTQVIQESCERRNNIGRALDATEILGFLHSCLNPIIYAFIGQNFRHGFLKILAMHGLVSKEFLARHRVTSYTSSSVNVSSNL


How the values were obtained:
human CXCR2 [1] = target: T1, human CXCR2; assay: flow cytometry, transfected Expi293F cells
Protocol: (§1) Harvested cells were resuspended in FACS buffer (1×PBS+0.5% (w/v) bovine serum albumin (BSA)+2 mM EDTA pH 7.2). Approximately 2×10⁵ cells were added per well in a 96-well round-bottomed plate. Cells were pelleted by centrifugation at 400 g for 5 mins at 4° C. and supernatants discarded. 25 μL of each test antibody or control antibody was added to the cells and incubated for 30 minutes at 4° C. Cells were washed twice in 100 μL FACS buffer followed by centrifugation at 400 g for 5 mins at 4° C.
(§2) For detection, 50 μL of secondary antibody (Table 2) was added to relevant samples. Commercially available antibodies that bound to transfected CXCR family members were used as positive controls to ensure that the cells were expressing the receptors. Cells were washed twice in 200 μL of FACS buffer followed by centrifugation at 400 g for 5 mins at 4° C. Before sample acquisition, cells were resuspended in 100 μL of FACS buffer. Samples were acquired using the high throughput sampler on a FACSCanto™ II cytometer (Beckton-Dickinson).
(§3) These antibody variable regions were then generated by gene synthesis and subcloned into mammalian expression vectors as described in General Methods. Antibodies were produced by co-expression of heavy and light chain plasmids in Expi293F™ cells and purified by protein A column chromatography as described in General Methods. Where several heavy and/or light chains were identified from the same hybridoma cells, each heavy chain was paired with each light chain and the resulting antibodies given suffix a, b, c, etc. Purified antibodies were desalted into Sorensen's PBS pH 5.8 and tested by flow cytometry for binding to Expi293F™ cells transfected with human CXCR2 or human CXCR1 and mock transfected Expi293F™ cells.

human CXCR1 = target: T2, human CXCR1; assay: flow cytometry, transfected Expi293F cells
Protocol: as §1, §2, §3

human CXCR2 [2] = target: T1, human CXCR2; assay: cell-based or functional assay
human CXCR2 [3] = target: T1, human CXCR2; assay: flow cytometry, CXCR2-transfected Expi293F cells
Protocol: as §1, §2
Each variant heavy chain was co-expressed with the parental light chain and vice versa.

Row | Binder | binding result (human CXCR2 [1]) | binding result (human CXCR1) | IC50, CXCL1, Tango assay (human CXCR2 [2]) | IC50, CXCL8, Tango assay (human CXCR2 [2]) | Fold change in binding relative to BKO-4A8 (human CXCR2 [3])
1 | BKO-1B10 (antibody, human IgG4 S228P, lambda, V domains shown, recombinant human IgG4 S228P, lambda) VH: QLQLQESGPGLVKPSETLSLTCTVSGGSIRTSSYYWGWIRQPPGKGLEYIGSIYYSGTTYYNPSLKSRVTMSVDTSKNQFSLKLSSVTAADTAVYYCARHGRVREVPPFDYWGQGTLVTVSS VL: SSELTQDPAVSVALGQTVRITCQGDSLRYYYASWYQQKPGQAPVLVIYDENSRPSGIPDRFSGSSSGNTASLRITGTQAEDEADYYCNSRDTSGNHWAFGGGTKLTVLG | binds | no binding |  |  | 
2 | BKO-1D1 (antibody, human IgG4 S228P, lambda, V domains shown, recombinant human IgG4 S228P, lambda) VH: EVQLLESGGGLVQPGGSLRLSCAASKLTFKNSAMSWVRQAPGKGLEWVSAITGSGGRTYYADSVKGRFTISRDNSKNTLYLQMNSLRAEDTAIYYCAIQMGYWGQGILVTVSS VL: QSALTQPPSASGSPGQSVTISCTGTSSDVGGYNYVSWYQQHPGKAPKLMIYEVNKRPSGVPARFSGSKSGNTASLTVSGLQAEDEADYYCSSYAGSNNFGVFGGGTKLTVLG | binds | no binding |  |  | 
3 | BKO-4A8 variant VL N52S (antibody, human IgG4 S228P, lambda, V domains shown, IgG4 S228P, lambda; parental heavy chain; also called 4A8 VL N52S) VH: EVQLLESGGGLVQPGGSLRLSCAASGFTFSSSTMSWVRQAPGKGLEWVSAISGRGRNTYYADSVKGRFTISRDNSRNTLYLQMNSLRAEDTAVYYCAIQMGYWGQGILVTVSS VL: QSALTQPPSASGSPGQSVTISCIGTSSDVGGYNYVSWYQQHPDKAPKLMIYEVSKRPSGVPDRFSGSKSGNTASLTVSGLQAEDEADYYCSSYAGNNNFGVFGGGTKLTVLG |  |  | 0.214 nM | 0.126 nM | 1 fold
4 | BKO-4A8 variant VL N94K (antibody, human IgG4 S228P, lambda, V domains shown, IgG4 S228P, lambda; parental heavy chain; also called 4A8 VL N94K) VH: EVQLLESGGGLVQPGGSLRLSCAASGFTFSSSTMSWVRQAPGKGLEWVSAISGRGRNTYYADSVKGRFTISRDNSRNTLYLQMNSLRAEDTAVYYCAIQMGYWGQGILVTVSS VL: QSALTQPPSASGSPGQSVTISCIGTSSDVGGYNYVSWYQQHPDKAPKLMIYEVNKRPSGVPDRFSGSKSGNTASLTVSGLQAEDEADYYCSSYAGKNNFGVFGGGTKLTVLG |  |  | 0.123 nM | 0.113 nM | 1.33 fold
5 | BKO-4A8 variant VH N56S (antibody, human IgG4 S228P, lambda, V domains shown, IgG4 S228P, lambda; parental light chain; also called 4A8 VH N56S) VH: EVQLLESGGGLVQPGGSLRLSCAASGFTFSSSTMSWVRQAPGKGLEWVSAISGRGRSTYYADSVKGRFTISRDNSRNTLYLQMNSLRAEDTAVYYCAIQMGYWGQGILVTVSS VL: QSALTQPPSASGSPGQSVTISCIGTSSDVGGYNYVSWYQQHPDKAPKLMIYEVNKRPSGVPDRFSGSKSGNTASLTVSGLQAEDEADYYCSSYAGNNNFGVFGGGTKLTVLG |  |  | 0.158 nM | 0.129 nM | 1 fold
6 | BKO-4A8 variant VL N94S (antibody, human IgG4 S228P, lambda, V domains shown, IgG4 S228P, lambda; parental heavy chain; also called 4A8 VL N94S) VH: EVQLLESGGGLVQPGGSLRLSCAASGFTFSSSTMSWVRQAPGKGLEWVSAISGRGRNTYYADSVKGRFTISRDNSRNTLYLQMNSLRAEDTAVYYCAIQMGYWGQGILVTVSS VL: QSALTQPPSASGSPGQSVTISCIGTSSDVGGYNYVSWYQQHPDKAPKLMIYEVNKRPSGVPDRFSGSKSGNTASLTVSGLQAEDEADYYCSSYAGSNNFGVFGGGTKLTVLG |  |  | 0.149 nM | 0.169 nM | 1 fold

Second part, the binder after the results:

Row | binding result (human CXCR2 [1]) | binding result (human CXCR1) | IC50, CXCL1, Tango assay (human CXCR2 [2]) | IC50, CXCL8, Tango assay (human CXCR2 [2]) | Fold change in binding relative to BKO-4A8 (human CXCR2 [3]) | Binder
7 | binds | no binding |  |  |  | BKO-1A1 (antibody, human IgG4 S228P, lambda, V domains shown, recombinant human IgG4 S228P, lambda) VH: QLQLQESGPGLVKPSETLSLTCTVSGGSIRTSSYYWGWIRQPPGKGLEYIGSIYYSGTTYYNPSLKSRVTMSVDTSKNQFSLKMSSVTAADSAVYYCARHGRVREVPPFDYWGQGTLVTVSS VL: SSELTQDPAVSVALGQTVRITCQGDSLRYYYASWYQQKPGQAPVLVIYDENSRPSGIPDRFSGSSSGNTASLSITGTQAEDEADYYCNSRDTSGNHWAFGGGTKLTVLG
8 |  |  | 0.135 nM | 0.091 nM | 1 fold | BKO-4A8 variant VH M96K (antibody, human IgG4 S228P, lambda, V domains shown, IgG4 S228P, lambda; parental light chain; also called 4A8 VH M96K) VH: EVQLLESGGGLVQPGGSLRLSCAASGFTFSSSTMSWVRQAPGKGLEWVSAISGRGRNTYYADSVKGRFTISRDNSRNTLYLQMNSLRAEDTAVYYCAIQKGYWGQGILVTVSS VL: QSALTQPPSASGSPGQSVTISCIGTSSDVGGYNYVSWYQQHPDKAPKLMIYEVNKRPSGVPDRFSGSKSGNTASLTVSGLQAEDEADYYCSSYAGNNNFGVFGGGTKLTVLG
9 | binds | no binding |  |  |  | BKO-2D8 (antibody, human IgG4 S228P, lambda, V domains shown, recombinant human IgG4 S228P, lambda) VH: EVQLLESGGGLVQPGGSLRLSCAASGYTFTSSTMSWVRQAPGKGLEWVTAISGRGGRTYYADSVKGRFTISRDNSKNTLYLQMNSLRAEDTAVYYCAIQLGNWGQGILVTVSS VL: QSALTQPPSASGSPGQSVTISCTGTSSDIGGYNYVSWYQQHPGKAPKLVIYEVNMRPSGVPARFSGSKSGNTASLTVSGLQAEDEADYYCSSYAGNDNFGVFGGGTKLSVLG
10 | binds | no binding |  |  |  | BKO-1H3 (antibody, human IgG4 S228P, lambda, V domains shown, recombinant human IgG4 S228P, lambda) VH: EVQLLESGGGLVQPGGSLRLSCAASGFTLSRSSTSWVRQTPGKGLEWVSAISGSGGRTYYADSVKGRFTISRDNSKNTLYLQMNSLRAEDTAVYYCAIQLGYWGQGILVTVSS VL: QSALTQPASVSGSPGQSITISCTGTSSDVGGYNYVSWYQQHPGKAPKLMIYDVSNRPSGVSNRFSGSKSGNTASLTISGLQAEDEADYYCSSYTSSSTWVFGGGTKLTVLG
11 |  |  | 0.164 nM | 0.105 nM | 0.5 fold | BKO-4A8 variant VL N94Y (antibody, human IgG4 S228P, lambda, V domains shown, IgG4 S228P, lambda; parental heavy chain; also called 4A8 VL N94Y) VH: EVQLLESGGGLVQPGGSLRLSCAASGFTFSSSTMSWVRQAPGKGLEWVSAISGRGRNTYYADSVKGRFTISRDNSRNTLYLQMNSLRAEDTAVYYCAIQMGYWGQGILVTVSS VL: QSALTQPPSASGSPGQSVTISCIGTSSDVGGYNYVSWYQQHPDKAPKLMIYEVNKRPSGVPDRFSGSKSGNTASLTVSGLQAEDEADYYCSSYAGYNNFGVFGGGTKLTVLG
12 |  |  | 0.213 nM | 0.084 nM | 1 fold | BKO-4A8 variant VL N95aQ (antibody, human IgG4 S228P, lambda, V domains shown, IgG4 S228P, lambda; parental heavy chain; also called 4A8 VL N95aQ) VH: EVQLLESGGGLVQPGGSLRLSCAASGFTFSSSTMSWVRQAPGKGLEWVSAISGRGRNTYYADSVKGRFTISRDNSRNTLYLQMNSLRAEDTAVYYCAIQMGYWGQGILVTVSS VL: QSALTQPPSASGSPGQSVTISCIGTSSDVGGYNYVSWYQQHPDKAPKLMIYEVNKRPSGVPDRFSGSKSGNTASLTVSGLQAEDEADYYCSSYAGNNQFGVFGGGTKLTVLG
13 |  |  | 0.33 nM | 0.14 nM | 1.5 fold | BKO-4A8 variant VH M96Q (antibody, human IgG4 S228P, lambda, V domains shown, IgG4 S228P, lambda; parental light chain; also called 4A8 VH M96Q) VH: EVQLLESGGGLVQPGGSLRLSCAASGFTFSSSTMSWVRQAPGKGLEWVSAISGRGRNTYYADSVKGRFTISRDNSRNTLYLQMNSLRAEDTAVYYCAIQQGYWGQGILVTVSS VL: QSALTQPPSASGSPGQSVTISCIGTSSDVGGYNYVSWYQQHPDKAPKLMIYEVNKRPSGVPDRFSGSKSGNTASLTVSGLQAEDEADYYCSSYAGNNNFGVFGGGTKLTVLG
14 | binds | no binding |  |  |  | BKO-3D6 (antibody, human IgG4 S228P, lambda, V domains shown, recombinant human IgG4 S228P, lambda) VH: EVQLVESGGDLVQPGRSLRLSCAASGFTFDDYAMHWVRQAPGKGLKWVSGITWNSGNKRYADSVKGRFTISRDNAKNSLYLQMNSLRAEDTALYYCAKDMKGSGTYFPAFDYWGQGTLVTVSS VL: not shown
15 | binds | no binding |  |  |  | BKO-3A9_b (antibody, human IgG4 S228P, lambda, V domains shown, recombinant human IgG4 S228P, lambda) VH: QVQVQQSGPGLVKPSQTLSLTCAISGDSVSSNSAAWNWIRQSPSRGLEWLGRTYYRSKWYNDYAVSLKRRITIRPDTSRNHFSLHLSSVTPEDTAVYYCVRAYCGGGSCLDYWGQGTLVTVSS VL: QSALTQPASASGSPGQSITISCTGTSSDVGNYNRVSWYQQHPGKVPKLMIYEGSKRPSGISNRFSGSKSGNTASLTISGLQPEDEADYFCCSYAGSNTLVFGGGTKLTVLG
